In US20180155451A1 (published 2018):

T1: FcγRIIb (human, UniProt P31994 43-217)
T1 construct: extracellular domain; also called FcgRIIb; 2b
T1 sequence (looked up): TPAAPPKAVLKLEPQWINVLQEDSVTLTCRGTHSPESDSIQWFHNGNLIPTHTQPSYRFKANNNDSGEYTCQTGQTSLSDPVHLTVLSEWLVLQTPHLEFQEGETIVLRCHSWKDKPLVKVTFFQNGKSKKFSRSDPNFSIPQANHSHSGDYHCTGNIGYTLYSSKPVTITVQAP

T2: FcγRIIa H (human, UniProt P12318 34-217)
T2 construct: extracellular domain; also called FcgRIIa H type; 2aH
T2 sequence (looked up): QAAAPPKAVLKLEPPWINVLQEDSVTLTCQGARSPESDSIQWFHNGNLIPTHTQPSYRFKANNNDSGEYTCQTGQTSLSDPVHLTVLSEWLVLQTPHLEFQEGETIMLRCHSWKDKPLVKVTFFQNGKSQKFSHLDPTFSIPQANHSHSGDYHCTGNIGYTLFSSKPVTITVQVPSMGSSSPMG

T3: FcγRIIb extracellular domain with C-terminal His tag (human, UniProt P31994 43-217)
T3 construct: extracellular domain; also called FcgRIIb; 2b; not shown: His tag at the C terminus
T3 sequence (looked up): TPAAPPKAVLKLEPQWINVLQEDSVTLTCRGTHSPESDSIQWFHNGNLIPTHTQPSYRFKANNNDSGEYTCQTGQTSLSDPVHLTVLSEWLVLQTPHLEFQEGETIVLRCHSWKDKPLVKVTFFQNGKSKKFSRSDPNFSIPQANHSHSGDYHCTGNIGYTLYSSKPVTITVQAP


What was measured:
FcγRIIb = target: T1, FcγRIIb; assay: SPR (Biacore), antibody captured on antigen-peptide chip, FcγR as analyte; binding relative to GpH7-A5/GpH7-B3/GpL16-k0 = 100
FcγRIIa H = target: T2, FcγRIIa H; assay: as above
[1] = target: T4, FcγRIIIa extracellular domain with C-terminal His tag (human, UniProt P08637 17-208); assay: SPR (Biacore), antibody captured via antigen peptide, FcγR as analyte; binding relative to GpH7-A5/GpH7-B3/GpL16-k0 = 100
T4 construct: extracellular domain; also called FcgRIIIa; 3a; not shown: His tag at the C terminus

[2] = target: T3, FcγRIIb extracellular domain with …; assay: as above

T4 sequence (P08637 17-208): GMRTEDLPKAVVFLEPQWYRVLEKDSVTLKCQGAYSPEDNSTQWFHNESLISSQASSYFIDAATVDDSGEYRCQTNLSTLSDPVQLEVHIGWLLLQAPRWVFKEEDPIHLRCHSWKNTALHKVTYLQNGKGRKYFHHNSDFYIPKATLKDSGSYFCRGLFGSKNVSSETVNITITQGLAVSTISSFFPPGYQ

He/Con_2b (FcγRIIb) | He/Con_2aH (FcγRIIa H) | He/Con_3a [1] | He/Con_2b [2] | Binder
94.6 % of HeCon Ab | 102 % of HeCon Ab |  |  | GpH7-A5/GpH7-B3 variant E333_04F/GpL16-k0 (antibody, human IgG1, kappa, Heterodimerized anti-glypican-3 IgG1; substitution in only one H chain (the GpH7-B3 chain); also called He Ab) heavy 1: not shown heavy 2: not shown light: DIVMTQSPLSLPVTPGEPASISCQASESLVHSNRNTYLHWYLQKPGQSPQLLIYKVSNRFSGVPDRFSGSGSGTDFTLKISRVEAEDVGVYYCSQNTHVPPTFGQGTKVEIERTVAAPSVFIFPPSDEQLKSGTASVVCLLNNFYPREAKVQWKVDNALQSGNSQESVTEQDSKDSTYSLSSTLTLSKADYEKHKVYACEVTHQGLSSPVTKSFNRGEC
89.8 % of HeCon Ab | 102 % of HeCon Ab |  |  | GpH7-A5/GpH7-B3 variant I336_10E/GpL16-k0 (antibody, human IgG1, kappa, Heterodimerized anti-glypican-3 IgG1; substitution in only one H chain (the GpH7-B3 chain); also called He Ab) heavy 1: not shown heavy 2: not shown light: DIVMTQSPLSLPVTPGEPASISCQASESLVHSNRNTYLHWYLQKPGQSPQLLIYKVSNRFSGVPDRFSGSGSGTDFTLKISRVEAEDVGVYYCSQNTHVPPTFGQGTKVEIERTVAAPSVFIFPPSDEQLKSGTASVVCLLNNFYPREAKVQWKVDNALQSGNSQESVTEQDSKDSTYSLSSTLTLSKADYEKHKVYACEVTHQGLSSPVTKSFNRGEC
 |  | 102 relative (control = 100) | 92 relative (control = 100) | GpH7-A5/GpH7-B3 variant S337_01G/GpL16-k0 (antibody, human IgG1, kappa, He Ab: the mutation stands only in the GpH7-B3-derived H chain; also called He Ab S337G) heavy 1: not shown heavy 2: not shown light: DIVMTQSPLSLPVTPGEPASISCQASESLVHSNRNTYLHWYLQKPGQSPQLLIYKVSNRFSGVPDRFSGSGSGTDFTLKISRVEAEDVGVYYCSQNTHVPPTFGQGTKVEIERTVAAPSVFIFPPSDEQLKSGTASVVCLLNNFYPREAKVQWKVDNALQSGNSQESVTEQDSKDSTYSLSSTLTLSKADYEKHKVYACEVTHQGLSSPVTKSFNRGEC
86.1 % of HeCon Ab | 100 % of HeCon Ab |  |  | GpH7-A5/GpH7-B3 variant E333_14T/GpL16-k0 (antibody, human IgG1, kappa, Heterodimerized anti-glypican-3 IgG1; substitution in only one H chain (the GpH7-B3 chain); also called He Ab) heavy 1: not shown heavy 2: not shown light: DIVMTQSPLSLPVTPGEPASISCQASESLVHSNRNTYLHWYLQKPGQSPQLLIYKVSNRFSGVPDRFSGSGSGTDFTLKISRVEAEDVGVYYCSQNTHVPPTFGQGTKVEIERTVAAPSVFIFPPSDEQLKSGTASVVCLLNNFYPREAKVQWKVDNALQSGNSQESVTEQDSKDSTYSLSSTLTLSKADYEKHKVYACEVTHQGLSSPVTKSFNRGEC
81.8 % of HeCon Ab | 101 % of HeCon Ab |  |  | GpH7-A5/GpH7-B3 variant E333_13S/GpL16-k0 (antibody, human IgG1, kappa, Heterodimerized anti-glypican-3 IgG1; substitution in only one H chain (the GpH7-B3 chain); also called He Ab) heavy 1: not shown heavy 2: not shown light: DIVMTQSPLSLPVTPGEPASISCQASESLVHSNRNTYLHWYLQKPGQSPQLLIYKVSNRFSGVPDRFSGSGSGTDFTLKISRVEAEDVGVYYCSQNTHVPPTFGQGTKVEIERTVAAPSVFIFPPSDEQLKSGTASVVCLLNNFYPREAKVQWKVDNALQSGNSQESVTEQDSKDSTYSLSSTLTLSKADYEKHKVYACEVTHQGLSSPVTKSFNRGEC
 |  | 102 relative (control = 100) | 99.4 relative (control = 100) | GpH7-A5/GpH7-B3 variant T335_06M/GpL16-k0 (antibody, human IgG1, kappa, He Ab: the mutation stands only in the GpH7-B3-derived H chain; also called He Ab T335M) heavy 1: not shown heavy 2: not shown light: DIVMTQSPLSLPVTPGEPASISCQASESLVHSNRNTYLHWYLQKPGQSPQLLIYKVSNRFSGVPDRFSGSGSGTDFTLKISRVEAEDVGVYYCSQNTHVPPTFGQGTKVEIERTVAAPSVFIFPPSDEQLKSGTASVVCLLNNFYPREAKVQWKVDNALQSGNSQESVTEQDSKDSTYSLSSTLTLSKADYEKHKVYACEVTHQGLSSPVTKSFNRGEC
 |  | 105 relative (control = 100) | 99.9 relative (control = 100) | GpH7-A5/GpH7-B3 variant T335_05P/GpL16-k0 (antibody, human IgG1, kappa, He Ab: the mutation stands only in the GpH7-B3-derived H chain; also called He Ab T335P) heavy 1: not shown heavy 2: not shown light: DIVMTQSPLSLPVTPGEPASISCQASESLVHSNRNTYLHWYLQKPGQSPQLLIYKVSNRFSGVPDRFSGSGSGTDFTLKISRVEAEDVGVYYCSQNTHVPPTFGQGTKVEIERTVAAPSVFIFPPSDEQLKSGTASVVCLLNNFYPREAKVQWKVDNALQSGNSQESVTEQDSKDSTYSLSSTLTLSKADYEKHKVYACEVTHQGLSSPVTKSFNRGEC
 |  | 101 relative (control = 100) | 97.8 relative (control = 100) | GpH7-A5/GpH7-B3 variant S337_04F/GpL16-k0 (antibody, human IgG1, kappa, He Ab: the mutation stands only in the GpH7-B3-derived H chain; also called He Ab S337F) heavy 1: not shown heavy 2: not shown light: DIVMTQSPLSLPVTPGEPASISCQASESLVHSNRNTYLHWYLQKPGQSPQLLIYKVSNRFSGVPDRFSGSGSGTDFTLKISRVEAEDVGVYYCSQNTHVPPTFGQGTKVEIERTVAAPSVFIFPPSDEQLKSGTASVVCLLNNFYPREAKVQWKVDNALQSGNSQESVTEQDSKDSTYSLSSTLTLSKADYEKHKVYACEVTHQGLSSPVTKSFNRGEC
97.6 % of HeCon Ab | 103 % of HeCon Ab |  |  | GpH7-A5/GpH7-B3 variant I336_18N/GpL16-k0 (antibody, human IgG1, kappa, Heterodimerized anti-glypican-3 IgG1; substitution in only one H chain (the GpH7-B3 chain); also called He Ab) heavy 1: not shown heavy 2: not shown light: DIVMTQSPLSLPVTPGEPASISCQASESLVHSNRNTYLHWYLQKPGQSPQLLIYKVSNRFSGVPDRFSGSGSGTDFTLKISRVEAEDVGVYYCSQNTHVPPTFGQGTKVEIERTVAAPSVFIFPPSDEQLKSGTASVVCLLNNFYPREAKVQWKVDNALQSGNSQESVTEQDSKDSTYSLSSTLTLSKADYEKHKVYACEVTHQGLSSPVTKSFNRGEC
